Measured values from the supplement of paper PMC11316812.
± gives the standard deviation of the averaged measurements.

Tests used:
MCF7 = test: percentage of EdU-negative (G0-arrested) nuclei per well, 72 h; higher = more G0 arrest; settings: reference: sequence is the full UniProt precursor, the tested protein was the secreted form or ectodomain
hTERT-HMEC = test: as above; settings: reference: sequence is the full UniProt precursor, the tested protein was the secreted form or ectodomain
[1] = protein concentration 0.0225 µM
[2] = protein concentration 0.03123 µM
[3] = protein concentration 0.3123 µM
[4] = protein concentration 0.0257143 µM
[5] = protein concentration 0.257143 µM
[6] = protein concentration 0.02225 µM
[7] = protein concentration 0.2225 µM
[8] = protein concentration 0.0075 µM
[9] = protein concentration 0.0231575 µM
[10] = protein concentration 0.231575 µM
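Also: secreted proteins added to cultured cells, EdU pulse at the end, nuclei found by Hoechst imaging, EdU status from nuclear versus surrounding ring intensity ratio, PBS as neutral control.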

| Sequence | percentage of EdU-negative (MCF7; [1]) [%] | percentage of EdU-negative (MCF7; protein concentration 0.225 µM) [%] | percentage of EdU-negative (hTERT-HMEC; [1]) [%] | percentage of EdU-negative (hTERT-HMEC; protein concentration 0.225 µM) [%] | further results |
| --- | --- | --- | --- | --- | --- |
| MWSLLLCGLSIALPLSVTADGCKDIFMKNEILSASQPFAFNCTFPPITSGEVSVTWYKNSSKIPVSKIIQSRIHQDETWILFLPMEWGDSGVYQCVIKGRDSCHRIHVNLTVFEKHWCDTSIGGLPNLSDEYKQILHLGKDDSLTCHLHFPKSCVLGPIKWYKDCNEIKGERFTVLETRLLVSNVSAEDRGNYACQAILTHSGKQYEVLNGITVSITERAGYGGSVPKIIYPKNHSIEVQLGTTLIVDCNVTDTKDNTNLRCWRVNNTLVDDYYDESKRIREGVETHVSFREHNLYTVNITFLEVKMEDYGLPFMCHAGVSTAYIILQLPAPDFRAYLIGGLIALVAVAVSVVYIYNIFKIDIVLWYRSAFHSTETIVDGKLYDAYVLYPKPHKESQRHAVDALVLNILPEVLERQCGYKLFIFGRDEFPGQAVANVIDENVKLCRRLIVIVVPESLGFGLLKNLSEEQIAVYSALIQDGMKVILIELEKIEDYTVMPESIQYIKQKHGAIRWHGDFTEQSQCMKTKFWKTVRYHMPPRRCRPFPPVQLLQHTPCYRTAGPELGSRRKKCTLTTG [Q9HB29] | 24.7 ± 2.6 | 24 ± 0.89 | 5.48 ± 0.32 | 6.16 ± 0.14 | – |
| MWTLGRRAVAGLLASPSPAQAQTLTRVPRPAELAPLCGRRGLRTDIDATCTPRRASSNQRGLNQIWNVKKQSVYLMNLRKSGTLGHPGSLDETTYERLAEETLDSLAEFFEDLADKPYTFEDYDVSFGSGVLTVKLGGDLGTYVINKQTPNKQIWLSSPSSGPKRYDWTGKNWVYSHDGVSLHELLAAELTKALKTKLDLSSLAYSGKDA | 25.6 ± 0.72 | 26.7 ± 4 | 4.76 ± 0.24 | 9.96 ± 1 | – |
| MWTSGRMSNAKNWLGLGMSLYFWGLMDLTTTVLSDTPTPQGELEALLSDKPQSHQRTKRSWVWNQFFVLEEYTGTDPLYVGKLHSDMDRGDGSIKYILSGEGAGIVFTIDDTTGDIHAIQRLDREERAQYTLRAQALDRRTGRPMEPESEFIIKIQDINDNEPKFLDGPYVATVPEMSPVGTSVIQVTATDADDPTYGNSARVVYSILQGQPYFSVDSKTGVIRTALMNMDREAKEYYEVIIQAKDMGGQLGGLAGTTTVNITLSDVNDNPPRFPQKHYQMSVLESAPISSTVGRVFAKDLDEGINAEMKYTIVDGDGADAFDISTDPNFQVGIITVKKPLSFESKKSYTLKVEGANPHLEMRFLNLGPFQDTTTVHISVEDVDEPPVFEPGFYFVEVPEDVAIGTTIQIISAKDPDVTNNSIRYSIDRSSDPGRFFYVDITTGALMTARPLDREEFSWHNITVLAMEMNNPSQVGSVPVTIKVLDVNDNAPEFPRFYEAFVCENAKAGQLIQTVSAVDQDDPRNGQHFYYSLAPEAANNPNFTIRDNQDNTARILTRRSGFRQQEQSVFHLPILIADSGQPVLSSTGTLTIQVCSCDDDGHVMSCSPEAYMLPVSLSRGALIAILACIFVLLVLVLLILSMRRHRKQPYIIDDEENIHENIVRYDDEGGGEEDTEAFDIAAMWNPREAQAGAAPKTRQDMLPEIESLSRYVPQTCAVNSTVHSYVLAKLYEADMDLWAPPFDSLQTYMFEGDGSVAGSLSSLQSATSDSEQSFDFLTDWGPRFRKLAELYGASEGPAPLW [Q9HBT6] | 28 ± 0.47 | 36 ± 0.13 | 3.9 ± 0.76 | 50.2 ± 7 | – |
| MWVLGIAATFCGLFLLPGFALQIQCYQCEEFQLNNDCSSPEFIVNCTVNVQDMCQKEVMEQSAGIMYRKSCASSAACLIASAGYQSFCSPGKLNSVCISCCNTPLCNGPRPKKRGSSASALRPGLRTTILFLKLALFSAHC [Q8N2G4] | 25.13 ± 0.22 | 25.1 ± 1.1 | 5.36 ± 1.2 | 4.964 ± 0.041 | – |
| MWVPVVFLTLSVTWIGAAPLILSRIVGGWECEKHSQPWQVLVASRGRAVCGGVLVHPQWVLTAAHCIRNKSVILLGRHSLFHPEDTGQVFQVSHSFPHPLYDMSLLKNRFLRPGDDSSHDLMLLRLSEPAELTDAVKVMDLPTQEPALGTTCYASGWGSIEPEEFLTPKKLQCVDLHVISNDVCAQVHPQKVTKFMLCAGRWTGGKSTCSGDSGGPLVCNGVLQGITSWGSEPCALPERPSLYTKVVHYRKWIKDTIVANP | 26.3 ± 1.2 | 25 ± 2 | 4.97 ± 0.14 | 5.29 ± 0.6 | percentage of EdU-negative (MCF7; [2]): 27.3 ± 0.96%; percentage of EdU-negative (MCF7; [3]): 26.3 ± 0.32%; percentage of EdU-negative (hTERT-HMEC; [2]): 4.99 ± 0.4%; percentage of EdU-negative (hTERT-HMEC; [3]): 6.47 ± 0.73% |
| MWWRVLSLLAWFPLQEASLTNHTETITVEEGQTLTLKCVTSLRKNSSLQWLTPSGFTIFLNEYPALKNSKYQLLHHSANQLSITVPNVTLQDEGVYKCLHYSDSVSTKEVKVIVLATPFKPILEASVIRKQNGEEHVVLMCSTMRSKPPPQITWLLGNSMEVSGGTLHEFETDGKKCNTTSTLIIHTYGKNSTVDCIIRHRGLQGRKLVAPFRFEDLVTDEETASDALERNSLSSQDPQQPTSTVSVTEDSSTSEIDKEEKEQTTQDPDLTTEANPQYLGLARKKSGILLLTLVSFLIFILFIIVQLFIMKLRKAHVIWKKENEVSEHTLESYRSRSNNEETSSEEKNGQSSHPMRCMNYITKLYSEAKTKRKENVQHSKLEEKHIQVPESIV | 25.3 ± 1.9 | 25.7 ± 2.4 | 4.57 ± 0.2 | 4.66 ± 0.87 | – |
| MYLSICCCFLLWAPALTLKNLNYSVPEEQGAGTVIGNIGRDARLQPGLPPAERGGGGRSKSGSYRVLENSAPHLLDVDADSGLLYTKQRIDRESLCRHNAKCQLSLEVFANDKEICMIKVEIQDINDNAPSFSSDQIEMDISENAAPGTRFPLTSAHDPDAGENGLRTYLLTRDDHGLFGLDVKSRGDGTKFPELVIQKALDREQQNHHTLVLTALDGGEPPRSATVQINVKVIDSNDNSPVFEAPSYLVELPENAPLGTVVIDLNATDADEGPNGEVLYSFSSYVPDRVRELFSIDPKTGLIRVKGNLDYEENGMLEIDVQARDLGPNPIPAHCKVTVKLIDRNDNAPSIGFVSVRQGALSEAAPPGTVIALVRVTDRDSGKNGQLQCRVLGGGGTGGGGGLGGPGGSVPFKLEENYDNFYTVVTDRPLDRETQDEYNVTIVARDGGSPPLNSTKSFAIKILDENDNPPRFTKGLYVLQVHENNIPGEYLGSVLAQDPDLGQNGTVSYSILPSHIGDVSIYTYVSVNPTNGAIYALRSFNFEQTKAFEFKVLAKDSGAPAHLESNATVRVTVLDVNDNAPVIVLPTLQNDTAELQVPRNAGLGYLVSTVRALDSDFGESGRLTYEIVDGNDDHLFEIDPSSGEIRTLHPFWEDVTPVVELVVKVTDHGKPTLSAVAKLIIRSVSGSLPEGVPRVNGEQHHWDMSLPLIVTLSTISIILLAAMITIAVKCKRENKEIRTYNCRIAEYSHPQLGGGKGKKKKINKNDIMLVQSEVEERNAMNVMNVVSSPSLATSPMYFDYQTRLPLSSPRSEVMYLKPASNNLTVPQGHAGCHTSFTGQGTNASETPATRMSIIQTDNFPAEPNYMGSRQQFVQSSSTFKDPERASLRDSGHGDSDQADSDQDTNKGSCCDMSVREALKMKTTSTKSQPLEQEPEECVNCTDECRVLGHSDRCWMPQFPAANQAENADYRTNLFVPTVEANVETETYETVNPTGKKTFCTFGKDKREHTILIANVKPYLKAKRALSPLLQEVPSASSSPTKACIEPCTSTKGSLDGCEAKPGALAEASSQYLPTDSQYLSPSKQPRDPPFMASDQMARVFADVHSRASRDSSEMGAVLEQLDHPNRDLGRESVDAEEVVREIDKLLQDCRGNDPVAVRK | – | – | – | – | percentage of EdU-negative (MCF7; [4]): 23.2 ± 3%; percentage of EdU-negative (MCF7; [5]): 26.6 ± 0.28%; percentage of EdU-negative (hTERT-HMEC; [4]): 4.62 ± 0.4%; percentage of EdU-negative (hTERT-HMEC; [5]): 7.27 ± 0.33% |
| MYLSRFLSIHALWVTVSSVMQPYPLVWGHYDLCKTQIYTEEGKVWDYMACQPESTDMTKYLKVKLDPPDITCGDPPETFCAMGNPYMCNNECDASTPELAHPPELMFDFEGRHPSTFWQSATWKEYPKPLQVNITLSWSKTIELTDNIVITFESGRPDQMILEKSLDYGRTWQPYQYYATDCLDAFHMDPKSVKDLSQHTVLEIICTEEYSTGYTTNSKIIHFEIKDRFAFFAGPRLRNMASLYGQLDTTKKLRDFFTVTDLRIRLLRPAVGEIFVDELHLARYFYAISDIKVRGRCKCNLHATVCVYDNSKLTCECEHNTTGPDCGKCKKNYQGRPWSPGSYLPIPKGTANTCIPSISSIGNCECFGHSNRCSYIDLLNTVICVSCKHNTRGQHCELCRLGYFRNASAQLDDENVCIECYCNPLGSIHDRCNGSGFCECKTGTTGPKCDECLPGNSWHYGCQPNVCDNELLHCQNGGTCHNNVRCLCPAAYTGILCEKLRCEEAGSCGSDSGQGAPPHGSPALLLLTTLLGTASPLVF [Q9Y2I2] | – | – | – | – | percentage of EdU-negative (MCF7; [6]): 26.06 ± 0.23%; percentage of EdU-negative (MCF7; [7]): 28.6 ± 3.7%; percentage of EdU-negative (hTERT-HMEC; [6]): 5.38 ± 0.34%; percentage of EdU-negative (hTERT-HMEC; [7]): 5.84 ± 1.4% |
| MYLVAGDRGLAGCGHLLVSLLGLLLLLARSGTRALVCLPCDESKCEEPRNCPGSIVQGVCGCCYTCASQRNESCGGTFGIYGTCDRGLRCVIRPPLNGDSLTEYEAGVCEDENWTDDQLLGFKPCNENLIAGCNIINGKCECNTIRTCSNPFEFPSQDMCLSALKRIEEEKPDCSKARCEVQFSPRCPEDSVLIEGYAPPGECCPLPSRCVCNPAGCLRKVCQPGNLNILVSKASGKPGECCDLYECKPVFGVDCRTVECPPVQQTACPPDSYETQVRLTADGCCTLPTRCECLSGLCGFPVCEVGSTPRIVSRGDGTPGKCCDVFECVNDTKPACVFNNVEYYDGDMFRMDNCRFCRCQGGVAICFTAQCGEINCERYYVPEGECCPVCEDPVYPFNNPAGCYANGLILAHGDRWREDDCTFCQCVNGERHCVATVCGQTCTNPVKVPGECCPVCEEPTIITVDPPACGELSNCTLTGKDCINGFKRDHNGCRTCQCINTEELCSERKQGCTLNCPFGFLTDAQNCEICECRPRPKKCRPIICDKYCPLGLLKNKHGCDICRCKKCPELSCSKICPLGFQQDSHGCLICKCREASASAGPPILSGTCLTVDGHHHKNEESWHDGCRECYCLNGREMCALITCPVPACGNPTIHPGQCCPSCADDFVVQKPELSTPSICHAPGGEYFVEGETWNIDSCTQCTCHSGRVLCETEVCPPLLCQNPSRTQDSCCPQCTDQPFRPSLSRNNSVPNYCKNDEGDIFLAAESWKPDVCTSCICIDSVISCFSESCPSVSCERPVLRKGQCCPYCIEDTIPKKVVCHFSGKAYADEERWDLDSCTHCYCLQGQTLCSTVSCPPLPCVEPINVEGSCCPMCPEMYVPEPTNIPIEKTNHRGEVDLEVPLWPTPSENDIVHLPRDMGHLQVDYRDNRLHPSEDSSLDSIASVVVPIIICLSIIIAFLFINQKKQWIPLLCWYRTPTKPSSLNNQLVSVDCKKGTRVQVDSSQRMLRIAEPDARFSGFYSMQKQNHLQADNFYQTV [Q9NZV1] | – | – | – | – | percentage of EdU-negative (MCF7; [8]): 24.3 ± 2.8%; percentage of EdU-negative (MCF7; protein concentration 0.075 µM): 25.9 ± 0.87%; percentage of EdU-negative (hTERT-HMEC; [8]): 4.66 ± 0.59%; percentage of EdU-negative (hTERT-HMEC; protein concentration 0.075 µM): 5.81 ± 1.6% |
| MYREWVVVNVFMMLYVQLVQGSSNEHGPVKRSSQSTLERSEQQIRAASSLEELLRITHSEDWKLWRCRLRLKSFTSMDSRSASHRSTRFAATFYDIETLKVIDEEWQRTQCSPRETCVEVASELGKSTNTFFKPPCVNVFRCGGCCNEESLICMNTSTSYISKQLFEISVPLTSVPELVPVKVANHTGCKCLPTAPRHPYSIIRRSIQIPEEDRCSHSKKLCPIDMLWDSNKCKCVLQEENPLAGTEDHSHLQEPALCGPHMMFDEDRCECVCKTPCPKDLIQHPKNCSCFECKESLETCCQKHKLFHPDTCSCEDRCPFHTRPCASGKTACAKHCRFPKEKRAAQGPHSRKNP | – | – | – | – | percentage of EdU-negative (MCF7; [9]): 27.2 ± 0.62%; percentage of EdU-negative (MCF7; [10]): 28.82 ± 0.28%; percentage of EdU-negative (hTERT-HMEC; [9]): 4.71 ± 0.18%; percentage of EdU-negative (hTERT-HMEC; [10]): 7.16 ± 1.6% |
